# According to US20110319338A1, “PEPTIDES THAT BIND EUKARYOTIC TRANSLATION INITIATION FACTOR 4E” (The Board of Regents of the University of Texas System, priority 2008, published 2011):
# Square brackets hold non-standard residues; d marks the D form. Ends that are not written are not given here.
# Columns and labels:
# [1] = system: GnRH-RI-positive and -negative lines; assay: Cell viability assay across cell lines; assay type: cell-based; details: 3 days
# Protocol: FIGS. 3A-3H. Uptake, binding and inhibitory effects of [DLys6]GnRH-4EBP fusion peptides. (FIG. 3A) Sequences of [DLys6]GnRH, and wild-type and mutant 4EBP1 peptides fused to the agonist. (FIG. 3B) Western blot of GnRH-RI levels in OVCAR-3, ES-2, MDA-MB-231, BJ, HUVEC and SKOV3 cells. (FIG. 3C) Detection of biotinylated peptides in OVCAR-3 and SKOV3 by Texas Red-conjugated streptavidin at 16 hours after peptide addition (3 micromoles per liter). In (FIGS. 3D and 3E), biotinylated peptides were incubated with OVCAR-3 cell lysate as described in FIG. 1. In (FIG. 3D), peptide was pulled down using streptavidin-agarose. Precipitates (P) and supernatants (S) were analyzed by Western blot using eIF4E antibody. In (FIG. 3E), immunoprecipitation was performed using eIF4E antibody, and Western blot performed using eIF4G antibody. […]
# FIGS. 14A-14B. […] Viability of cells at 3 days after peptide addition was measured by crystal violet staining and is expressed relative to viability of cells incubated with no peptide. […] Staining of cells with FITC-Annexin V and PI was analyzed by flow cytometry.
# Cell viability and TUNEL assays. […] Cells were stained with 0.5% crystal violet solution, and absorbance measured at 570 nm. […] Cells were fixed in 70% ethanol and the extent of apoptosis was determined by flow cytometric analysis of TUNEL-staining using the APO-BRDU kit (Phoenix Flow Systems, San Diego Calif.). […]
# [2] = biological target: T1, eIF4E (Homo sapiens, UniProt P06730); assay: Streptavidin-agarose pull-down of biotinylated peptide from OVCAR-3 cell lysate, Western blot with eIF4E antibody; assay type: binding; details: biotinylated peptide 3 micromoles per liter, 250 micrograms OVCAR-3 cell lysate
# T1 construct: endogenous in cells; host or cells: OVCAR-3 cell lysate
# T1 sequence (P06730 whole entry): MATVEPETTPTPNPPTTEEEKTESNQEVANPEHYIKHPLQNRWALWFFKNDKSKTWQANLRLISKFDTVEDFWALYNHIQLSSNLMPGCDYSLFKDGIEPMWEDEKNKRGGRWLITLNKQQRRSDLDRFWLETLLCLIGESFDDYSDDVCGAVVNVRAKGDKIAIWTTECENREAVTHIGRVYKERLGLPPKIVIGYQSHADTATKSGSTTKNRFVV
# Protocol: FIGS. 1A-1G. 4EBP peptides bind eIF4E and inhibit binding of eIF4E to eIF4G. (FIG. 1A) Sequences of peptides comprising residues 49 to 68 of 4EBP1 and 4EBP2. (FIG. 1B) Biotinylated peptides (3 micromoles per liter) were incubated with 250 micrograms of OVCAR-3 cell lysate. Peptides were pulled-down using streptavidin-agarose. Precipitates (P) and supernatants (S) were analyzed by Western blot using eIF4E antibody. In (FIG. 1C), immunoprecipitation was performed using eIF4E antibody, and Western blot performed using eIF4G antibody. (FIG. 1D) Sequences of wild-type and mutant 4EBP peptides fused to TAT (mutant residues are highlighted). (FIG. 1E) OVCAR-3 cells were treated with biotinylated peptides (3 micromoles per liter, final concentration) for 16 hours. Internalized peptides were detected by staining fixed cells with Texas Red-conjugated streptavidin. Nuclei were visualized by staining with 4′,6-Diamidino-2-Phenylindole (DAPI). (FIGS. 1F and 1G) OVCAR-3 cell lysates were incubated with peptides as described for FIG. 1B. In (FIG. 1F), immunoprecipitation was performed using streptavidin-agarose and Western blot performed using eIF4E antibody. In (FIG. 1G), immunoprecipitation was performed using eIF4E antibody, and Western blot performed using eIF4G antibody.
# FIGS. 3A-3H. Uptake, binding and inhibitory effects of [DLys6]GnRH-4EBP fusion peptides. (FIG. 3A) Sequences of [DLys6]GnRH, and wild-type and mutant 4EBP1 peptides fused to the agonist. (FIG. 3B) Western blot of GnRH-RI levels in OVCAR-3, ES-2, MDA-MB-231, BJ, HUVEC and SKOV3 cells. (FIG. 3C) Detection of biotinylated peptides in OVCAR-3 and SKOV3 by Texas Red-conjugated streptavidin at 16 hours after peptide addition (3 micromoles per liter). In (FIGS. 3D and 3E), biotinylated peptides were incubated with OVCAR-3 cell lysate as described in FIG. 1. In (FIG. 3D), peptide was pulled down using streptavidin-agarose. Precipitates (P) and supernatants (S) were analyzed by Western blot using eIF4E antibody. In (FIG. 3E), immunoprecipitation was performed using eIF4E antibody, and Western blot performed using eIF4G antibody. (FIG. 3F) R-Luc and F-Luc activities were assayed in ES-2-DualLuc cells at 6 hours after addition of the indicated concentrations of peptides, and are expressed relative to the respective luciferase activities in cells incubated without peptide. Shown are results of triplicate assays performed independently two times, and the statistical significance of differences in relative R-Luc and F-Luc activities in cells treated with peptide at a concentration of 10 micromoles per liter (FIG. 3G) Cells of GnRH-RI-positive and -negative lines were treated with the indicated concentrations of peptides. […]
# [3] = biological target: T2, binding of eIF4E to eIF4G in SKOV3+GnRH-RI cells (Homo sapiens, UniProt P06730); assay: eIF4E immunoprecipitation / eIF4G Western blot of lysates of peptide-treated cells; assay type: cell-based; details: 10 micromoles per liter, 24 hours
# T2 construct: endogenous in cells; host or cells: SKOV3+GnRH-RI cells
# T2 sequence (P06730 2-217 limits assumed): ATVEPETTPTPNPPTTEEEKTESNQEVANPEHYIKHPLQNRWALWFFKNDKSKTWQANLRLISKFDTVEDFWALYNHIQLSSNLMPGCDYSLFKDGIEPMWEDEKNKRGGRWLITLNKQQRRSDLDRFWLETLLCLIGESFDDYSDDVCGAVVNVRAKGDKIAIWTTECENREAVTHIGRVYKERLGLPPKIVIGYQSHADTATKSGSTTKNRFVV
# Protocol: FIGS. 8A-8D. Effect of [DLys6] GnRH-4EBP1 peptide in SKOV3 cells stably expressing GnRH-RI. (FIG. 8A) Western blot analysis of GnRH-RI in parental SKOV3 cells and SKOV3 cells transfected with GnRH-RI. In (FIG. 8B), SKOV3+GnRH-RI cells were treated with biotinylated peptides at a final concentration of 10 micromoles per liter or incubated without peptide. At 24 hours after treatment, lysates were prepared from cells. Peptide was pulled-down using streptavidin-agarose. Precipitates and supernatants were analyzed by Western blot using eIF4E antibody. (FIG. 8C) parental SKOV3, SKOV3+GnRH-RI and ES-2 cells were treated with the indicated peptides (10 micromoles per liter) or incubated without peptide. At 24 hours after treatment, lysates were prepared from cells. Immunoprecipitation was performed using eIF4E antibody, and Western blot of precipitates was performed using eIF4G antibody. Western blot of whole cell lysates of treated cells was performed using antibodies to eIF4G, eIF4E and actin. (FIG. 8D) TUNEL-staining of parental SKOV3 and SKOV3+GnRH-RI cells at 3 days following treatment with peptide at a final concentration of 30 micromoles per liter.
# Immunoprecipitation (IP) and Western blotting. Biotinylated peptides were incubated with 250 micrograms of cell lysate at a final concentration of 3 micromoles per liter for 6 hours at 4° C. […]
substance,measurement,setting,value
"[DLys6]GnRH: GnRH agonist with a D-amino acid substitution at position 6; GnRH-RI-targeting moiety (QHWSY[dK]LRPG; not fully specified (residue 1, C-terminus); ends and bridges not checked)",cell growth across lines,[1],did not significantly inhibit cell growth
same,binding of peptide to eIF4E,[2],did not bind
same,binding of eIF4E to eIF4G in treated cells,[3],not inhibited
